Test results reported in the supplement of paper PMC5998384.

What was measured:
[1] = test system: HeLa Kyoto; assay: solubility in G1/S (NP-40 vs SDS abundance) (log2 ratio); higher = more soluble; details: cell cycle stage: G1/S
[2] = test system: HeLa Kyoto; assay: solubility change mitosis vs G1/S (difference of NP-40 vs SDS log2 ratios) (log2 ratio difference); higher = more soluble in mitosis
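For solubility change mitosis vs G1/S (difference of NP-40 vs SDS log2 ratios) in this document: synchronized HeLa Kyoto cells (double thymidine block for G1/S, nocodazole release for mitosis), protein amounts in NP-40 versus SDS lysates quantified by mass spectrometry, three biological replicates.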
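For solubility in G1/S (NP-40 vs SDS abundance) in this document: HeLa Kyoto cells arrested at G1/S by double thymidine block, proteins quantified by TMT10plex mass spectrometry in mild NP-40 versus SDS extracts, three biological replicates.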

| Substance | solubility in G1/S (log2) [1] | solubility change mitosis (log2) [2] |
| --- | --- | --- |
| MSGGGTETPVGCEAAPGGGSKKRDSLGTAGSAHLIIKDLGEIHSRLLDHRPVIQGETRYFVKEFEEKRGLREMRVLENLKNMIHETNEHTLPKCRDTMRDSLSQVLQRLQAANDSVCRLQQREQERKKIHSDHLVASEKQHMLQWDNFMKEQPNKRAEVDEEHRKAMERLKEQYAEMEKDLAKFSTF [BLOC1S5] | 0.438 | -0.0624 |
| MLQSLAGSSCVRLVERHRSAWCFGFLVLGYLLYLVFGAVVFSSVELPYEDLLRQELRKLKRRFLEEHECLSEQQLEQFLGRVLEASNYGVSVLSNASGNWNWDFTSALFFASTVLSTTGYGHTVPLSDGGKAFCIIYSVIGIPFTLLFLTAVVQRITVHVTRRPVLYFHIRWGFSKQVVAIVHAVLLGFVTVSCFFFIPAAVFSVLEDDWNFLESFYFCFISLSTIGLGDYVPGEGYNQKFRELYKIGITCYLLLGLIAMLVVLETFCELHELKKFRKMFYVKKDKDEDQVHIIEHDQLSFSSITDQAAGMKEDQKQNEPFVATQSSACVDGPANH [KCNK1] | -0.169 | -0.0475 |
| HELZ2 | -0.293 | -0.0125 |
| MGDPGSEIIESVPPAGPEASESTTDENEDDIQFVSEGPLRPVLEYIDLVSSDDEEPSTSYTDENIKRKDHIDYQKDKVALTLARLARHVEVEKQQKEEKNRAFREKIDFQHAHGLQELEFIRGHSDTEAARLCVDQWLKMPGLKTGTINCGTKSSFRRGGHTWVSGKPILCPIMHCNKEFDNGHLLLGHLKRFDHSPCDPTITLHGPFFSSFACVVCYKKFVTQQQYRDHLFDKEATDDGHNNNLLPQIIQCFACPNCFLLFSRKEECSKHMSGKNHFHQSFKLGDNKGIAHPISFPSFAKKLLISLCKDVPFQVKCVACHKTLRSHMELTAHFRVHCRNAGPVAVAEKSITQVAEKFILRGYCPDCNQVFVDETSTQNHKQNSGHKVRVINSVEESVLLYCHSSEGNKDPSSDLHLLLDQSKFSSLKRTMSIKESSSLECIAIPKKKMNLKDKSHEGVACVQKEKSVVKTWFCECNQRFPSEDAVEKHVFSANTMGYKCVVCGKVCDDSGVIRLHMSRIHGGAHLNNFLFWCRTCKKELTRKDTIMAHVTEFHNGHRYFYEMDEVEGETLPSSSTTLDNLTANKPSSAITVIDHSPANSSPRGKWQCRICEDMFDSQEYVKQHCMSLASHKFHRYSCAHCRKPFHKIETLYRHCQDEHDNEIKIKYFCGLCDLIFNVEEAFLSHYEEHHSIDYVFVSEKTETSIKTEDDFPVIETSNQLTCGCRESYICKVNRKEDYSRCLQIMLDKGKLWFRCSLCSATAQNLTDMNTHIHQVHKEKSDEEEQQYVIKCGTCTKAFHDPESAQQHFHRKHCFLQKPSVAHFGSEKSNLYKFTASASHTERKLKQAINYSKSLDMEKGVENDLSYQNIEEEIVELPDLDYLRTMTHIVFVDFDNWSNFFGHLPGHLNQGTFIWGFQGGNTNWKPPLNCKIYNYLNRIGCFFLHPRCSKRKDAADFAICMHAGRLDEQLPKQIPFTILSGDQGFLELENQFKKTQRPAHILNPHHLEGDMMCALLNSISDTTKECDSDDNMGAKNTSIGEEFISTEDVELEEAIRRSLEEM [ZNF451] | -0.657 | -0.197 |
| MMDSPFLELWQSKAVSIREQLGLGDRPNDSYCYNSAKNSTVLQGVTFGGIPTVLLIDVSCFLFLILVFSIIRRRFWDYGRIALVSEADSESRFQRLSSTSSSGQQDFENELGCCPWLTAIFRLHDDQILEWCGEDAIHYLSFQRHIIFLLVVVSFLSLCVILPVNLSGDLLDKDPYSFGRTTIANLQTDNDLLWLHTIFAVIYLFLTVGFMRHHTQSIKYKEENLVRRTLFITGLPRDARKETVESHFRDAYPTCEVVDVQLCYNVAKLIYLCKEKKKTEKSLTYYTNLQVKTGQRTLINPKPCGQFCCCEVLGCEWEDAISYYTRMKDRLLERITEEERHVQDQPLGMAFVTFQEKSMATYILKDFNACKCQSLQCKGEPQPSSHSRELYTSKWTVTFAADPEDICWKNLSIQGLRWWLQWLGINFTLFLGLFFLTTPSIILSTMDKFNVTKPIHALNNPIISQFFPTLLLWSFSALLPSIVYYSTLLESHWTKSGENQIMMTKVYIFLIFMVLILPSLGLTSLDFFFRWLFDKTSSEASIRLECVFLPDQGAFFVNYVIASAFIGNGMELLRLPGLILYTFRMIMAKTAADRRNVKQNQAFQYEFGAMYAWMLCVFTVIVAYSITCPIIAPFGLIYILLKHMVDRHNLYFVYLPAKLEKGIHFAAVNQALAAPILCLFWLYFFSFLRLGMKAPATLFTFLVLLLTILVCLAHTCFGCFKHLSPLNYKTEEPASDKGSEAEAHMPPPFTPYVPRILNGLASERTALSPQQQQQQTYGAIHNISGTIPGQCLAQSATGSVAAAPQEA [TMEM63A] | -0.142 | 0.0055 |
| MSTFRQEDVEDHYEMGEELGSGQFAIVRKCRQKGTGKEYAAKFIKKRRLSSSRRGVSREEIEREVNILREIRHPNIITLHDIFENKTDVVLILELVSGGELFDFLAEKESLTEDEATQFLKQILDGVHYLHSKRIAHFDLKPENIMLLDKNVPNPRIKLIDFGIAHKIEAGNEFKNIFGTPEFVAPEIVNYEPLGLEADMWSIGVITYILLSGASPFLGETKQETLTNISAVNYDFDEEYFSNTSELAKDFIRRLLVKDPKRRMTIAQSLEHSWIKAIRRRNVRGEDSGRKPERRRLKTTRLKEYTIKSHSSLPPNNSYADFERFSKVLEEAAAAEEGLRELQRSRRLCHEDVEALAAIYEEKEAWYREESDSLGQDLRRLRQELLKTEALKRQAQEEAKGALLGTSGLKRRFSRLENRYEALAKQVASEMRFVQDLVRALEQEKLQGVECGLR [DAPK3] | -0.721 | -0.0326 |
| MDEQEALNSIMNDLVALQMNRRHRMPGYETMKNKDTGHSNRQSDVRIKFEHNGERRIIAFSRPVKYEDVEHKVTTVFGQPLDLHYMNNELSILLKNQDDLDKAIDILDRSSSMKSLRILLLSQDRNHNSSSPHSGVSRQVRIKASQSAGDINTIYQPPEPRSRHLSVSSQNPGRSSPPPGYVPERQQHIARQGSYTSINSEGEFIPETSEQCMLDPLSSAENSLSGSCQSLDRSADSPSFRKSRMSRAQSFPDNRQEYSDRETQLYDKGVKGGTYPRRYHVSVHHKDYSDGRRTFPRIRRHQGNLFTLVPSSRSLSTNGENMGLAVQYLDPRGRLRSADSENALSVQERNVPTKSPSAPINWRRGKLLGQGAFGRVYLCYDVDTGRELASKQVQFDPDSPETSKEVSALECEIQLLKNLQHERIVQYYGCLRDRAEKTLTIFMEYMPGGSVKDQLKAYGALTESVTRKYTRQILEGMSYLHSNMIVHRDIKGANILRDSAGNVKLGDFGASKRLQTICMSGTGMRSVTGTPYWMSPEVISGEGYGRKADVWSLGCTVVEMLTEKPPWAEYEAMAAIFKIATQPTNPQLPSHISEHGRDFLRRIFVEARQRPSAEELLTHHFAQLMY [MAP3K3] | 0.569 | -0.169 |
| MMDPCSVGVQLRTTNECHKTYYTRHTGFKTLQELSSNDMLLLQLRTGMTLSGNNTICFHHVKIYIDRFEDLQKSCCDPFNIHKKLAKKNLHVIDLDDATFLSAKFGRQLVPGWKLCPKCTQIINGSVDVDTEDRQKRKPESDGRTAKALRSLQFTNPGRQTEFAPETGKREKRRLTKNATAGSDRQVIPAKSKVYDSQGLLIFSGMDLCDCLDEDCLGCFYACPACGSTKCGAECRCDRKWLYEQIEIEGGEIIHNKHAG [ARL14EP] | -0.0781 | -0.0185 |
| MSSEESYRAILRYLTNEREPYAPGTEGNVKRKIRKAAACYVVRGGTLYYQRRQRHRKTFAELEVVLQPERRRDLIEAAHLGPGGTHHTRHQTWHYLSKTYWWRGILKQVKDYIKQCSKCQEKLDRSRPISDVSEMLEELGLDLESGEESNESEDDLSNFTSSPTTASKPAKKKPVSKHELVFVDTKGVVKRSSPKHCQAVLKQLNEQRLSNQFCDVTLLIEGEEYKAHKSVLSANSEYFRDLFIEKGAVSSHEAVVDLSGFCKASFLPLLEFAYTSVLSFDFCSMADVAILARHLFMSEVLEICESVHKLMEEKQLTVYKKGEVQTVASTQDLRVQNGGTAPPVASSEGTTTSLPTELGDCEIVLLVNGELPEAEQNGEVGRQPEPQVSSEAESALSSVGCIADSHPEMESVDLITKNNQTELETSNNRENNTVSNIHPKLSKENVISSSPEDSGMGNDISAEDICAEDIPKHRQKVDQPLKDQENLVASTAKTDFGPDDDTYRSRLRQRSVNEGAYIRLHKGMEKKLQKRKAVPKSAVQQVAQKLVQRGKKMKQPKRDAKENTEEASHKCGECGMVFQRRYALIMHKLKHERARDYKCPLCKKQFQYSASLRAHLIRHTRKDAPSSSSSNSTSNEASGTSSEKGRTKREFICSICGRTLPKLYSLRIHMLKHTGVKPHACQVCGKTFIYKHGLKLHQSLHQSQKQFQCELCVKSFVTKRSLQEHMSIHTGESKYLCSVCGKSFHRGSGLSKHFKKHQPKPEVRGYHCTQCEKSFFEARDLRQHMNKHLGVKPFQCQFCDKCYSWKKDWYSHVKSHSVTEPYRCNICGKEFYEKALFRRHVKKATHGKKGRAKQNLERVCEKCGRKFTQLREYRRHMNNHEGVKPFECLTCGVAWADARSLKRHVRTHTGERPYVCPVCSEAYIDARTLRKHMTKFHRDYVPCKIMLEKDTLQFHNQGTQVAHAVSILTAGMQEQESSGPQELETVVVTGETMEALEAVAATEEYPSVSTLSDQSIMQVVNYVLAQQQGQKLSEVAEAIQTVKVEVAHISGGE [ZBTB11] | -0.621 | 0.267 |
| ATAD5 | -1.01 | 0.557 |
| MAAPCLLRQGRAGALKTMLQEAQVFRGLASTVSLSAESGKSEKGQPQNSKKQSPPKKPAPVPAEPFDNTTYKNLQHHDYSTYTFLDLNLELSKFRMPQPSSGRESPRH [NDUFV3] | 0.224 | -0.0477 |
| MQVSSLNEVKIYSLSCGKSLPEWLSDRKKRALQKKDVDVRRRIELIQDFEMPTVCTTIKVSKDGQYILATGTYKPRVRCYDTYQLSLKFERCLDSEVVTFEILSDDYSKIVFLHNDRYIEFHSQSGFYYKTRIPKFGRDFSYHYPSCDLYFVGASSEVYRLNLEQGRYLNPLQTDAAENNVCDINSVHGLFATGTIEGRVECWDPRTRNRVGLLDCALNSVTADSEINSLPTISALKFNGALTMAVGTTTGQVLLYDLRSDKPLLVKDHQYGLPIKSVHFQDSLDLILSADSRIVKMWNKNSGKIFTSLEPEHDLNDVCLYPNSGMLLTANETPKMGIYYIPVLGPAPRWCSFLDNLTEELEENPESTVYDDYKFVTKKDLENLGLTHLIGSPFLRAYMHGFFMDIRLYHKVKLMVNPFAYEEYRKDKIRQKIEETRAQRVQLKKLPKVNKELALKLIEEEEEKQKSTWKKKVKSLPNILTDDRFKVMFENPDFQVDEESEEFRLLNPLVSKISEKRKKKLRLLEQQELREKEEEEEPEGKPSDAESSESSDDEKAWVEEVRKQRRLLQQEEKVKRQERLKEDQQTVLKPQFYEIKAGEEFRSFKDSATKQKLMNKTLEDRLKIEAKNGTLSVSDTTVGSKQLTFTLKRSEQQKKQQEAEKLHRQERKRLRRSAGHLKSRHKRGRSFH [NOL10] | -1.88 | 0.53 |
